Assay results published in patent publication US7786356B2, “Method for the production of calendic acid, a fatty acid containing delta 8,10,12 conjugated double bonds and related fatty acids having a modification at the delta 9 position” (E.I. du Pont de Nemours and Company, priority 1999, dated 2010).

B1: CalFad2-2: Calendula officinalis fatty acid modifying enzyme (cDNA SEQ ID NO:3, protein SEQ ID NO:4) forming conjugated double bonds at delta-9 position (protein, listed as Calendula officinalis)
chain: MGKAASAKKVLERVPISKPPFEYNDLKKAVPPHCFSRPLSRSLYFLFHDIIVTCILFYVASNYIHMLPRFLSCIVWPVYWISQGVFLGRLWMIGHECGHHSFSNYRWVDDTVGFLIHTATLTPYFSFKYSHRNHHAHTNSMEYDEVHIPKRKSEALYFEFLGNNPIGLMITMLCKLTFGYAAYIMFNYTGKKHKSGGLASHFYPQSPLFNDSERNHVLFSDIGICIVLYACYRIVTVTGAMPAFYVYGIPWVIMSAILFAATYLQHTHPSIPHYDTTEWNWLRGALSTIDRDLGFFNMNKTHYHVIHHLFPVIPEYHAQEATEAIKPILGQYYKYDGTPFLKALWREMKECIYVESDEGQKKQGIYWFKNKT
B2: DMFad2-2: Dimorphotheca sinuata Δ-9 hydroxy-conjugase (SEQ ID NO:12/13) converting trans-linoleic acid to dimorphecolic acid (protein, listed as Dimorphotheca sinuata)
chain: MGASEEMKVLERVPVSKPPFEYNDLKKAVPPHCFTRSLSLSFYYLFYDLIKVCILFYVASKYIPMLPYSLSCIVWPLYWFFQGAFLGRLWMIGHECGHHSFSNYRWLDDTVGFLVHTATLTPYFSFKYSHRNHHAHTNSLEYDEVHVPKIRKFKSEHLYSEFLTNNPFGLVVNMVFELTFGYPSYLIFNYSGRKLTQAGFASHLYPQSPIFNDSERNHVFFSDVGICIVLYALYRIAIAKGAMLVLYVYGLPWVVMSAFIFSLTYLQHTHPSIPHYDSTEWNWLRGALSSIDRELAGAFNIKKTHYHVVHHLFPFIPEYHAHDATEALKPILGPYYKYDGTPFYKALWREMKDCLYVESDDGPNKTGVYWFKTKT

What was measured:
Format in all cases: cell-based
somatic soybean embryos [1] = experiment: Production of calendic acid in somatic soybean embryos expressing CalFad2-1 or CalFad2-2; details: single somatic embryos
From the text: The open-reading frames of these cDNAs were amplified by PCR in order generate the appropriate flanking restriction enzyme sites for cloning into the soybean expression vector. The oligonucleotide primers used for amplification of the CalFad2-1 open-reading frame were: 5′-ttgcggccgc[…]-3′ (sense, SEQ ID NO:18) and 5′-ttgcggccg[…]-3′ (antisense, SEQ ID NO:19). The oligonucleotide primers used for amplification of the CalFad2-2 coding sequence were: 5′-agcggccgcTATACCATGGGCAAG-3′ (sense, SEQ ID NO:20) and 5′-tgcggccgcTATGTTAAACTTC-3′ (antisense, SEQ ID NO:21). [Note: The sequences shown in lower case contain an added NotI site along with additional bases to facilitate restriction enzyme digestion.] The template was the cDNA corresponding to either EST ecs1c.pk009.n14 (CalFad2-1) or EST ecs1c.pk08.a24 (CalFad2-2), and Pfu polymerase (Stratagene) was used for the amplification reactions. The resulting PCR products were subcloned into the intermediate vector pCR-Script AMP SK(+) (Stratagene) according to the manufacturer's protocol. The amplified CalFad2-1 and CalFad2-2 coding sequences were then released with NotI digestion and then subcloned into the corresponding site of the soybean expression vector pKS67.
The PCR amplified coding sequences of CalFad2-1 and CalFa2-2 were fused with the β-conglycinin promoter and phaseolin termination sequences in vector pKS67 was transformed into somatic soybean embryos as follows. To induce somatic embryos, cotyledons, 3-5 mm in length dissected from surface sterilized, immature seeds of a soybean cultivar A2872 or JACK-910 were cultured in the light or dark at 26° C. on an appropriate agar medium for 6-10 weeks. Somatic embryos that produce secondary embryos were then excised and placed into a suitable liquid medium. After repeated selection for clusters of somatic embryos that multiplied as early, globular staged embryos, the suspensions were maintained as described below.
Soybean embryogenic suspension cultures were maintained in 35 mL liquid media on a rotary shaker, 150 rpm, at 26° C. with florescent lights on a 16:8 hour day/night schedule. Cultures were subcultured every two weeks by inoculating approximately 35 mg of tissue into 35 mL of liquid medium.
Soybean embryogenic suspension cultures were then transformed with the vector pKS67 containing the coding sequence for CalFad2-1 and CalFad2-2 by the method of particle gun bombardment (Klein et al. (1987) Nature (London) 327:70, U.S. Pat. No. 4,945,050). A Du Pont Biolisticä PDS1000/HE instrument (helium retrofit) was used for these transformations.
To […] of a 60 mg/mL […] gold particle suspension were added (in order): 5 mL DNA (1 mg/mL), 20 ml spermidine (0.1 M), and […] CaCl2 (2.5 M). The particle preparation was then agitated for three minutes, spun in a microfuge for 10 seconds and the supernatant removed. The DNA-coated particles were then washed once in 400 mL 70% ethanol and resuspended in 40 mL of anhydrous ethanol. The DNA/particle suspension was sonicated three times for one second each. Five mL of the DNA-coated gold particles was then loaded on each macro carrier disk.
Approximately 300-400 mg of a two-week-old suspension culture was placed in an empty 60×15-mm petri dish and the residual liquid removed from the tissue with a pipette. For each transformation experiment, approximately 5 to 10 plates of tissue were bombarded. Membrane rupture pressure was set at 1100 psi and the chamber was evacuated to a vacuum of 28 inches mercury. The tissue was placed approximately 3.5 inches away from the retaining screen and bombarded three times. Following bombardment, the tissue was divided in half and placed back into liquid and cultured as described above.
Five to seven days post bombardment, the liquid media was exchanged with fresh media, and eleven to twelve days post bombardment with fresh media containing […] hygromycin. This selective media was refreshed weekly. […]

[2] = tested on: Saccharomyces cerevisiae INVSc1 cells; experiment: Expression of CalFad2-1 and CalFad2-2 in Saccharomyces cerevisiae; details: cells grown in media containing 2 mM linoleic acid, 4 days at 16° C.; (w/w) of total fatty acids
From the text: The Calendula officinalis clones CalFad2-1 and CalFad2-2 were digested with the restriction enzymes EcoRI and XhoI. The resulting DNA fragments containing the entire cDNA inserts were purified by agarose gel electrophoresis. The purified cDNAs were ligated into the EcoRI and XhoI sites of the Saccharomyces cerevisiae expression vector pYES2 (Invitrogen) using T4 DNA ligase (New England Biolabs). The resulting plasmids pYes2/CalFad2-1 and pYes2/CalFad2-2 were introduced into Saccharomyces cerevisiae INVSc1 (Invitrogen Corp.) cells by lithium acetate-mediated transformation [Sherman F, Fink G R, Hicks J B, Methods in Yeast Genetics: A Laboratory Course Manual, Cold Spring Harbor Lab. Press, Plainview, N.Y. (1987)]. Transformed cells were selected for their ability to grow in the absence of uracil. […] In cells grown in media containing linoleic acid, calendic acid (18:3Δ^8trans,10trans,12cis) was detected in amounts of up to 2.9% (w/w) of the total fatty acids of cultures expressing CalFad2-1 (FIG. 3) and in amounts of up to 0.2% of the total fatty acids of cultures expressing CalFad2-2. […] No calendic acid was detected in cultures harboring the expression vector without a cDNA insert or in cells grown in the absence of exogenous linoleic acid. […]

somatic soybean embryos [3] = experiment: Production of dimorphecolic acid in transgenic somatic soybean embryos expressing DMFad2-1 and/or DMFad2-2
From the text: Initially, the open-reading frames of cDNAs for DMFad2-1 and DMFad2-2 were amplified by PCR using Pfu polymerase (Stratagene) to generate the appropriate restriction enzyme sites for cloning into the soybean expression vector. For amplification of the open-reading frame of the DMFad2-1 cDNA, EST dms2c.pk006.d7 (SEQ ID NO: 10 for the nucleotide sequence, and SEQ ID NO:11 for the polypeptide translation product) was used as the template, and the oligonucleotide primers were: 5′-tatgcggccgcAAATGGGAGCAGGAGGTTG-3′ (sense, SEQ ID NO:22) and 5′-tttgcggccgc[…]-3′ (antisense, SEQ ID NO:23). For amplification of the open-reading frame of the DMFad2-2 cDNA, EST dms2c.pk001.113 (SEQ ID NO:12 for the nucleotide sequence, and SEQ ID NO:13 for the polypeptide translation product) was used as the template, and the oligonucleotide primers were: 5′-tgcggccgc[…]-3′ (sense, SEQ ID NO:24) and 5′-tagcggccgcTGATTAATCAAGTCTTAG-3′ (antisense, SEQ ID NO:25). The nucleotides shown in lower case are not Dimorphotheca sequences, but instead encode an added NotI site along with additional bases to facilitate restriction enzyme digestion. The resulting PCR products were subcloned into the intermediate vector pCR-Script AMP SK(+) (Stratagene) according to the manufacturer's protocol. […]
The expression constructs containing the DMFad2-1 and DMFad2-2 coding sequences in vector pKS67 were transformed into somatic soybean embryos using the biolistic method as described in Example 10. […] The fatty acid compositions of the resulting transgenic soybean embryos were then assessed for the presence of novel fatty acid structures. […] The resulting transgenic soybean embryos selected for hygromycin resistance were analyzed for alterations in fatty acid content relative to untransformed embryos. […] The recovered fatty acid methyl esters and derivatives were then analyzed using a Hewlett-Packard 6890 chromatograph fitted with an Omegawax 320 column (30 m×0.32 mm inner diameter; Supelco). […] Fatty acid methyl esters were also analyzed by GC-MS an HP6890 interfaced with a HP5973 (Hewlett-Packard) mass selective detector. […]

[4] = n = 5, ± standard deviation, weight % of total fatty acids

Molecule | Other, Fatty Acid Weight % (somatic soybean embryos [1]; n = 5, weight % of total fatty acids) | 16:0, Fatty Acid Weight % (somatic soybean embryos [1]; [4]) [Weight %] | 18:0, Fatty Acid Weight % (somatic soybean embryos [1]; [4]) [Weight %] | 18:1, Fatty Acid Weight % (somatic soybean embryos [1]; [4]) [Weight %] | 18:2, Fatty Acid Weight % (somatic soybean embryos [1]; [4]) [Weight %] | 18:3, Fatty Acid Weight % (somatic soybean embryos [1]; [4]) [Weight %] | Calendic Acid, Fatty Acid Weight % (somatic soybean embryos [1]; [4]) [Weight %] | calendic acid (18:3Δ8trans,10trans,12cis), amount of the total fatty acids [2] | dimorphecolic acid accumulation (somatic soybean embryos [3]; "DMFad2-2 alone" transformants) | 18:2Δ9cis,12trans in extracts of somatic soybean embryos (FIG. 9) (somatic soybean embryos [3]; embryo extracts of FIG. 9 panels B and C) | dimorphecolic acid isomers, share of the total fatty acids (somatic soybean embryos [3]; experiment MSE 229, GC-MS selected ion 225 m/z) [%]
B1 | ≦1.7 Weight % | 12.3 ± 1.1 | 3.3 ± 0.5 | 8.6 ± 2.1 | 38.2 ± 3.4 | 17.7 ± 3.5 | 18.1 ± 3.6 | up to 0.2% | – | – | –
B2 | – | – | – | – | – | – | – | – | less than 0.1% | lacked detectable amounts | < 0.1
